These results are taken from paper PMC7714896 (Signal Transduction and Targeted Therapy, 2020).

For the test, the target named is T1, receptor-binding domain (RBD) of SARS-CoV-2 spike protein (SARS-CoV-2, UniProt P0DTC2).
T1 construct: source: bought: GenScript
The test is described as follows: SPR; BIAcore 3000; […], flow 15 μl/min, […]. Conditions: both partners purified. For orientation: SPR reads the build-up and loss of mass on a sensor chip optically.

B1: recombinant human CD147 extracellular fragment (His-CD147) (domain or fragment)
chain: EPGTVFTTVEDLGSKILLTCSLNDSATEVTGHRWLKGGVVLKEDALPGQKTEFKVDSDDQWGEYSCVFLPEPMGTANIQLHGPPRVKAVKSSEHINEGETAMLVCKSESVPPVTDWAWYKITDSEDKALMNGSESRFFVSSSQGRSELHIENLNMEADPGQYRCNGTSSKGSDQAIITLRVRSHLAAL
The Kd is a measure of binding affinity in units of concentration. B1 yielded a Kd of 185 nM. This lies in the sub-micromolar range.
